Results reported in paper PMC3969020.
Positions count from the first letter of the chain named. Numbers in names are those of the source.

B1: Horse liver alcohol dehydrogenase (ADH), E isoenzyme (Equus caballus; V208A) (protein)
chain: STAGKVIKCKAAVLWEEKKPFSIEEVEVAPPKAHEVRIKMVATGICRSDDHVVSGTLVTPLPVIAGHEAAGIVESIGEGVTTVRPGDKVIPLFTPQCGKCRVCKHPEGNFCLKNDLSMPRGTMQDGTSRFTCRGKPIHHFLGTSTFSQYTVVDEISVAKIDAASPLEKVCLIGCGFSTGYGSAVKVAKVTQGSTCAVFGLGGVGLSAIMGCKAAGAARIIGVDINKDKFAKAKEVGATECVNPQDYKKPIQEVLTEMSNGGVDFSFEVIGRLDTMVTALSCCQEAYGVSVIVGVPPDSQNLSMNPMLLLSGRTWKGAIFGGFKSKDSVPKLVADFMAKKFALDPLITHVLPFEKINEGFDLLRSGESIRTILTF
B2: Horse liver alcohol dehydrogenase (ADH), E isoenzyme (Equus caballus) (protein)
chain: B1 chain with A207V

Substrate: OCc1ccccc1
Assay: steady-state kinetics
Assay type: biochemical, Equus caballus
Details: NAD+; catalytic zinc; 25.0 °C

| Protein | Km [µM] |
| --- | --- |
| B1 | 13 ± 1 |
| B2 | 14 ± 1 |
